# Experimental data published in FireProtDB (doi:10.1002/pro.5560060717).
# Where “and” joins values, the source holds several entries; their conditions need not be identical. Identical values can stand only once.
# B1: Gamma-crystallin B, P02526 (parent)
# chain: MGKITFYEDRGFQGHCYECSSDCPNLQPYFSRCNSIRVDSGCWMLYERPNYQGHQYFLRRGDYPDYQQWMGFNDSIRSCRLIPQHTGTFRMRIYERDDFRGQMSEITDDCPSLQDRFHLTEVHSLNVLEGSWVLYEMPSYRGRQYLLRPGEYRRYLDWGAMNAKVGSLRRVMDFY
# Variants of: B1
# Conditions: Bos taurus; pH 2; 20 °C; Urea; Fluorescence; NaCl-HCl 100 mM; reversible: yes; structure 4GCR; whole UniProt chain shown
row,Variant,denaturant midpoint (higher = more stable)
1,F57W,1.5 M and 4.2 M
